{"source": "paper PMC7055300", "about": "“Theileria parasites subvert E2F signaling to stimulate leukocyte proliferation” (Scientific Reports, 2020)", "target": "human Retinoblastoma-1 (RB) pocket domain (human) (UniProt P06400)", "sequence (P06400 373-771)": "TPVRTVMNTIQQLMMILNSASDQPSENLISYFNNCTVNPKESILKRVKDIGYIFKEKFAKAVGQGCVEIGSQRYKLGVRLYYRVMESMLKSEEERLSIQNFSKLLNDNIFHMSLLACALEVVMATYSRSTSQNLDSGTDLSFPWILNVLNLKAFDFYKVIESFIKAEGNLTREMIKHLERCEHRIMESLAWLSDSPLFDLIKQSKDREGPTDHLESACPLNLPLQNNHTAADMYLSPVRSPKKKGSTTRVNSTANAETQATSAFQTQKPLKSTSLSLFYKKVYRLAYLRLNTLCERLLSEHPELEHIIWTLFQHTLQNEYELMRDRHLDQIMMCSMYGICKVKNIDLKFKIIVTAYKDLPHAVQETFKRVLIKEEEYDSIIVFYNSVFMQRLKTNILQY", "assay": "SPR", "data": [{"substance": "full-length, recombinant TpGcpE protein (TpMuguga_02g00667) (natural protein)", "values": [{"measurement": "Kd", "value": 18.7, "unit": "nM"}]}]}
